From publication PMC4213368, “Elucidation of a protein-protein interaction network involved in Corynebacterium glutamicum cell wall biosynthesis as determined by bacterial two-hybrid analysis” (Glycoconjugate Journal, 2014)
Where “and” joins values, the source holds several entries; their conditions need not be identical. Identical values can stand only once. Each block holds one molecule with its values, some of them ahead of it.

Key:
Assay in all cases: two-hybrid; BACTH in E. coli BTH101, same co-transformants; β-galactosidase activity in Miller units, mean of 3 independent assays; negative control with empty vectors 86 ± 11 Miller units
[1] = molecular target: DprE2 (Corynebacterium glutamicum ATCC 13032)
[2] = molecular target: AftA (Corynebacterium glutamicum ATCC 13032) (UniProt Q8NTW4)
[3] = molecular target: AftB (Corynebacterium glutamicum ATCC 13032) (UniProt Q8NLR0)
[4] = molecular target: AftC (Corynebacterium glutamicum ATCC 13032) (UniProt Q8NPB7)
[5] = molecular target: UbiA (Corynebacterium glutamicum ATCC 13032)
[6] = molecular target: Emb (Corynebacterium glutamicum ATCC 13032)
[7] = molecular target: WecA (Corynebacterium glutamicum ATCC 13032)
[8] = molecular target: the molecule itself

β-galactosidase activity [1]: 637 Miller units and 1030 Miller units
Molecule: DprE1 (enzyme)

β-galactosidase activity [2]: 387 Miller units
β-galactosidase activity [3]: 1020 Miller units
β-galactosidase activity [4]: 755 Miller units
Molecule: UbiA (enzyme)

β-galactosidase activity [5]: 1090 Miller units and 1200 Miller units
Molecule: WbbL (enzyme)

β-galactosidase activity [3]: 1080 Miller units
β-galactosidase activity [4]: 1050 Miller units
β-galactosidase activity [6]: 1350 Miller units
β-galactosidase activity [5]: 1020 Miller units
β-galactosidase activity [7]: 487 Miller units
Molecule: WecA (enzyme)

B1: AftC (enzyme, Corynebacterium glutamicum ATCC 13032, UniProt Q8NPB7 1-418, looked up)
chain: MSFSPVAPSISAPTPRRSRWDSIGNAVAWPLAMLLMAHRFFVLAINGAVTDDFTTVYSALRRFVEGIPVYNEVYHFVDPHYLYNPGATLLLAPLGYITHFTLARWMFIAVNLLAIVLAFGLLTRLSGWALRSMVWPIAIALAMLTETVQNTLIFSNINGILLLMLAIFLWCVVHKKSWLGGLVIGLAILIKPMFLPLLFLPLVKKQWGSLILGILTPVIFNAVAWFLVPGASEYVTRTMPYLGETRDFANSSLPGLAIYFGMPTWMEITWFLIFGAMVGLAVLALLRFRNTEPYFWAATTTGVLLTGVFFLSSLGQMYYSMMIFPMIFTLLGSRSVFHNWVAWVAAYFFLSPDTFTSQRLPDVARWMEFFSATVGWGLLIVVTFVSALIWFIGDIRAKGTPSSPITTDPTHDHLERTA
notes: AftC, arabinofuranosyltransferase, transmembrane, Corynebacterium glutamicum ATCC 13032; gene amplified from genomic DNA; One molecule for all four fusion forms; also called arabinofuranosyltransferase AftC; AftC-T25^C; source: E. coli BTH101, bacterial two-hybrid (BACTH) fusion; not shown: T25 or T18 fragment of Bordetella pertussis adenylate cyclase, N-terminal or C-terminal (each tested), kept
β-galactosidase activity [8]: 398 Miller units

B2: AftB (enzyme, Corynebacterium glutamicum ATCC 13032, UniProt Q8NLR0 1-686, looked up)
chain: MTFSPQRPEFETGKQPDPETEHAGDFFEETSSSAPRAASNGSSGPNYTLITTFLAALTAGIFAFWAGWTRKWISDDGLIVLRTVRNLLAGNGPVFNAGERVEANTSTLWQYCIYLVALVTDYRLEDIALWLALLFTTAASIIGVLGTAHLHRKRIAVLLPAGVIGYFSLSPARDFATSGLEWGLSLMWISIQWLLLVLWATSGKTSGKKASGAKTSNPIVNAGAITYALAFWSGLSWLVRPELAMYGGLTGVLLLLTAPRWRVVLGILVAALPLPAAYQIFRMGYYGLMVPHTAVAKSASDAVWGTGWEYVEDFTGPYNLWLGLALLLAAGALTVWKTDKHLAIPKGRLGLRTPGMAIALLVICALVHFLYVIRVGGDFMHGRMLLLPLFAILLPVSVIPVNVVDRGWQDLVALVLVFSTWVWSTVVFVQGHQWENTGQHVVDERDFWIDFTNRDEDHPPLYAEDFLTVDSMNDYAEVMRDQTLVNPTGQQLNILASSDPTTYSWITTPRVEGVEAGDLANLSPTVFHVNLGMTSMNAPLNVRVTDLIGLATPLAARQPRIEGGRIGHDKLMDLEWQVAESATPLAYTPGWLDTQKTYEARQALRHPELVHLFQTYREPMSYHRFVDNIKYALTTGRTLEISDNPEDLLKEFNPTPAEIQDGLETIAWPGEIKLDEPRGEPLYSSQ
notes: AftB, arabinofuranosyltransferase, transmembrane, Corynebacterium glutamicum ATCC 13032; gene amplified from genomic DNA; One molecule for all four fusion forms; also called arabinofuranosyltransferase AftB; AftB-T25^N; source: E. coli BTH101, bacterial two-hybrid (BACTH) fusion; not shown: T25 or T18 fragment of Bordetella pertussis adenylate cyclase, N-terminal or C-terminal (each tested), kept
β-galactosidase activity [8]: 1180 Miller units

B3: AftA (enzyme, Corynebacterium glutamicum ATCC 13032, UniProt Q8NTW4 1-661, looked up)
chain: MNPYGPSRVPEGEVYRPDRLNRKATLVAIVGAAILAFAFALVLWMGLKQTNLPAFGPSNVTRAVASATIAAVLIVTGFLTWLWLRDEHQSNPRWELEDVKPRPKWRTALTYLASYLSPAALVVAVLAIPLSATRLYLDGISVDQGFRTQFLTRMADDIGLSDMNYIDMPTFYPAGWFWLGGRLANLLGLPGWEAFQPWAIVSMAVAASVLVPVWQRITGSLPVATGIALVTTCIILAMNSEEPYAAIVAMGIPAMLVLASRIAKGDKFALAGGIIYLGVSATFYTLFTGAIALSAVAVCIVVAAIVQRSIKPLLWLAVLGGGSIVIALISWGPYLLASINGAERSGDSATHYLPLEGTQFPVPFLASSVVGLLCLVGLIYLVVRFHNNEVRAMWVGIAVFYAWMGMSMAITLLGNTLLGFRLDTVLVLIFATAGVLGIADFRLASVYQLYPTQITERTATHLTNLIVVLVLLGGLYYAQDLPQKNARAIDLAYTDTDGYGERADLYPAGAARYYKDINDHLLDQGFEPSETVVLTDELDFMSYYPYRGYQAFTSHYANPLGEFGNRNAFIEDLAIRSWDELADPQQFSDALNTSPWTIPEVFIFRGSIDDPDAGWKYDVAEDLYPNNPNVRFRGVYFNPESFDQMWQTKQVGPFVVVTHNE
notes: AftA, arabinofuranosyltransferase, transmembrane, Corynebacterium glutamicum ATCC 13032; gene amplified from genomic DNA; One molecule for all four fusion forms; also called arabinofuranosyltransferase AftA; AftA-T25^N; source: E. coli BTH101, bacterial two-hybrid (BACTH) fusion; not shown: T25 or T18 fragment of Bordetella pertussis adenylate cyclase, N-terminal or C-terminal (each tested), kept
β-galactosidase activity [8]: 714 Miller units
